Earlier results, collected in PMC4860950.

Key:
CD244 (Homo sapiens) = CD244 (Homo sapiens) (UniProt Q9BZW8)
CD2 (Homo sapiens) = CD2 (Homo sapiens) (UniProt P06729)
CD2 (Mus musculus) = CD2 (Mus musculus) (UniProt P08920)
Sequence of UniProt P08920 (P08920 23-203): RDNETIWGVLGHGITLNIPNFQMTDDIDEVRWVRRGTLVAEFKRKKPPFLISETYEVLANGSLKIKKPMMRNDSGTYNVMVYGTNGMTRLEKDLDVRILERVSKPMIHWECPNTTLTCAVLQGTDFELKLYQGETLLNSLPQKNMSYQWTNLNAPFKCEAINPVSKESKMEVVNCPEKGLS

Sequence of UniProt P06729 (P06729 25-209): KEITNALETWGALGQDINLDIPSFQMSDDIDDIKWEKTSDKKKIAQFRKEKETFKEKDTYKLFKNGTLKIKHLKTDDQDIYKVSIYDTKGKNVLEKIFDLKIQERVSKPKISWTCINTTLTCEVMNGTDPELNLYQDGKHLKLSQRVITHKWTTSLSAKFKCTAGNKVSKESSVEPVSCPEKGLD
Sequence of UniProt Q9BZW8 (Q9BZW8 22-229): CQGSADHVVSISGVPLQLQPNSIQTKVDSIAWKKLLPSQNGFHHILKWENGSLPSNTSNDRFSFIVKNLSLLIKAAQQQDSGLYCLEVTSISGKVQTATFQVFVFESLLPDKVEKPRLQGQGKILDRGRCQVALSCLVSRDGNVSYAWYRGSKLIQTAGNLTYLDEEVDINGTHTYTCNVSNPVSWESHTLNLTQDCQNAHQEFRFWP

| Kd (CD244 (Homo sapiens)) | Kd (CD2 (Homo sapiens)) | Kd (CD2 (Mus musculus)) | Substance |
| --- | --- | --- | --- |
| 8 µM | 100 µM |  | CD48 (from UniProt P09326) |
|  |  | 90 µM | CD48 (from UniProt P18181) |
